Results published in paper PMC5159797, “Phosphorylation of SKAP by GSK3β ensures chromosome segregation by a temporal inhibition of Kif2b activity” (Scientific Reports, 2016).

Target: T1, His-GSK3β (human, UniProt P49841 1-420)
T1 construct: GSK3β; the construct is not described further; The pull-down methods speak of His-tagged fusion proteins expressed in bacterial cells, the protein methods of insect cells; also called 6×His-GSK3β; His-tagged GSK3β; source: insect cells, purified (Ni-NTA agarose)
T1 sequence (P49841 whole entry, the tested form may be a part): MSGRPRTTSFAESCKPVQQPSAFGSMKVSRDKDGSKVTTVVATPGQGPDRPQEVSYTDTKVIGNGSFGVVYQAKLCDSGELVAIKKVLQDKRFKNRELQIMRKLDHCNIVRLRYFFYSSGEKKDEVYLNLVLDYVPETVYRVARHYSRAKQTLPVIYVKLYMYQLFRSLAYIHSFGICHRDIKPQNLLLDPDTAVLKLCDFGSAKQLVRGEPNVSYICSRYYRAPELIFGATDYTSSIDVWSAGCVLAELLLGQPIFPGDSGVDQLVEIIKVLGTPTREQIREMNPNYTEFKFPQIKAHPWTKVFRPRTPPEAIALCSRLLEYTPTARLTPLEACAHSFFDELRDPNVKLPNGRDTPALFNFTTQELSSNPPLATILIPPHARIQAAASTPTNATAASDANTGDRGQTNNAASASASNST
Experiment: pull-down; GST fusion protein-bound sepharose beads incubated 2 h at 4 °C with purified MBP fusion proteins or His-tagged protein; PBS, 0.1% Triton X-100; anti-MBP or anti-His blot
Conditions: both partners purified

binding result: binds
B1: GST-SKAP (natural protein, UniProt Q9Y448 1-316, looked up)
chain: MAAPEAPPLDRVFRTTWLSTECDSHPLPPSYRKFLFETQAADLAGGTTVAAGNLLNESEKDCGQDRRAPGVQPCRLVTMTSVVKTVYSLQPPSALSGGQPADTQTRATSKSLLPVRSKEVDVSKQLHSGGPENDVTKITKLRRENGQMKATDTATRRNVRKGYKPLSKQKSEEELKDKNQLLEAVNKQLHQKLTETQGELKDLTQKVELLEKFRDNCLAILESKGLDPALGSETLASRQESTTDHMDSMLLLETLQEELKLFNETAKKQMEELQALKVKLEMKEERVRFLEQQTLCNNQVNDLTTALKEMEQLLEM
notes: SKAP (small kinetochore-associated protein), full length, cloned into pGEX-5X-3; also called GST-tagged SKAP full length; GST-SKAP-WT; source: E. coli Rosetta (DE3), purified on glutathione-sepharose 4B
